Assay results published in the supplement of paper PMC9112550, “Optimization of the antimicrobial peptide Bac7 by deep mutational scanning” (BMC Biology, 2022).

System: Escherichia coli TOP10
Assay: shrunken log2 fold change of peptide-encoding DNA abundance (4.5 h post-induction vs induction); higher = less antimicrobial activity (less host growth inhibition)
Details: time post-induction: 4.5 h; library: site-saturation at positions 5, 18, 19, 20
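Note: peptides expressed intracellularly from a pBAD plasmid library in pooled LB shake-flask culture, induced with 0.3% L-arabinose, DNA abundance read by NGS, three biological replicates, DESeq2 with apeglm shrinkage.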

Row | Sequence | shrunken log2 fold change
1 | RRIRWRPPRLPRPRPRPECNPRP | 0.457
2 | RRIRWRPPRLPRPRPRPEDDPRP | 1.19
3 | RRIRWRPPRLPRPRPRPEDPPRP | 0.157
4 | RRIRWRPPRLPRPRPRPEDVPRP | 0.0895
5 | RRIRWRPPRLPRPRPRPEETPRP | 0.0603
6 | RRIRWRPPRLPRPRPRPEEWPRP | -0.0123
7 | RRIRWRPPRLPRPRPRPEFCPRP | 0.335
8 | RRIRWRPPRLPRPRPRPEFTPRP | 0.362
9 | RRIRWRPPRLPRPRPRPEGCPRP | 1.22
10 | RRIRWRPPRLPRPRPRPEHPPRP | 0.16
11 | RRIRWRPPRLPRPRPRPEHQPRP | 0.263
12 | RRIRWRPPRLPRPRPRPEKMPRP | -0.0237
13 | RRIRWRPPRLPRPRPRPELAPRP | 0.758
14 | RRIRWRPPRLPRPRPRPELRPRP | 0.0333
15 | RRIRWRPPRLPRPRPRPEMKPRP | 0.271
16 | RRIRWRPPRLPRPRPRPEMMPRP | 0.399
17 | RRIRWRPPRLPRPRPRPENRPRP | -0.0139
18 | RRIRWRPPRLPRPRPRPEPCPRP | 0.157
19 | RRIRWRPPRLPRPRPRPEPSPRP | 0.39
20 | RRIRWRPPRLPRPRPRPEQFPRP | 0.32
21 | RRIRWRPPRLPRPRPRPESIPRP | 0.2
22 | RRIRWRPPRLPRPRPRPESSPRP | 0.759
23 | RRIRWRPPRLPRPRPRPETAPRP | 0.177
24 | RRIRWRPPRLPRPRPRPETIPRP | 0.322
25 | RRIRWRPPRLPRPRPRPEVEPRP | -0.016

Row | Sequence | shrunken log2 fold change
26 | RRIRWRPPRLPRPRPRPEVKPRP | 0.21
27 | RRIRWRPPRLPRPRPRPEVVPRP | -0.0122
28 | RRIRWRPPRLPRPRPRPEVYPRP | -0.0423
29 | RRIRWRPPRLPRPRPRPEWEPRP | 0.00016
30 | RRIRWRPPRLPRPRPRPEWHPRP | 0.595
31 | RRIRWRPPRLPRPRPRPEWTPRP | 0.0673
32 | RRIRWRPPRLPRPRPRPFAAPRP | 0.862
33 | RRIRWRPPRLPRPRPRPFAQPRP | -0.0369
34 | RRIRWRPPRLPRPRPRPFFWPRP | 1.17
35 | RRIRWRPPRLPRPRPRPFGQPRP | -0.0338
36 | RRIRWRPPRLPRPRPRPFHRPRP | -0.2
37 | RRIRWRPPRLPRPRPRPFHWPRP | 0.175
38 | RRIRWRPPRLPRPRPRPFIMPRP | -0.0374
39 | RRIRWRPPRLPRPRPRPFKLPRP | -0.044
40 | RRIRWRPPRLPRPRPRPFLVPRP | -0.293
41 | RRIRWRPPRLPRPRPRPFMCPRP | -0.245
42 | RRIRWRPPRLPRPRPRPFMQPRP | -0.261
43 | RRIRWRPPRLPRPRPRPFNTPRP | -0.0751
44 | RRIRWRPPRLPRPRPRPFPTPRP | -0.12
45 | RRIRWRPPRLPRPRPRPFQHPRP | 0.0415
46 | RRIRWRPPRLPRPRPRPFRHPRP | -0.0307
47 | RRIRWRPPRLPRPRPRPFTHPRP | -0.297
48 | RRIRWRPPRLPRPRPRPFTIPRP | -0.212
49 | RRIRWRPPRLPRPRPRPFTKPRP | -0.151
50 | RRIRWRPPRLPRPRPRPFWDPRP | 0.00494

Row | Sequence | shrunken log2 fold change
51 | RRIRWRPPRLPRPRPRPFYVPRP | -0.348
52 | RRIRWRPPRLPRPRPRPFYWPRP | -0.151
53 | RRIRWRPPRLPRPRPRPGCCPRP | 0.659
54 | RRIRWRPPRLPRPRPRPGCEPRP | 0.901
55 | RRIRWRPPRLPRPRPRPGEPPRP | 0.271
56 | RRIRWRPPRLPRPRPRPGETPRP | 0.174
57 | RRIRWRPPRLPRPRPRPGEVPRP | -0.0252
58 | RRIRWRPPRLPRPRPRPGFAPRP | 0.382
59 | RRIRWRPPRLPRPRPRPGFDPRP | 0.517
60 | RRIRWRPPRLPRPRPRPGFHPRP | -0.0866
61 | RRIRWRPPRLPRPRPRPGGNPRP | 0.0972
62 | RRIRWRPPRLPRPRPRPGGSPRP | 0.341
63 | RRIRWRPPRLPRPRPRPGHEPRP | 0.0994
64 | RRIRWRPPRLPRPRPRPGHHPRP | 0.0195
65 | RRIRWRPPRLPRPRPRPGKFPRP | 0.26
66 | RRIRWRPPRLPRPRPRPGLAPRP | 0.505
67 | RRIRWRPPRLPRPRPRPGLFPRP | 2.38
68 | RRIRWRPPRLPRPRPRPGMEPRP | 0.302
69 | RRIRWRPPRLPRPRPRPGMWPRP | 0.729
70 | RRIRWRPPRLPRPRPRPGNSPRP | -0.22
71 | RRIRWRPPRLPRPRPRPGPIPRP | 0.171
72 | RRIRWRPPRLPRPRPRPGQGPRP | 0.522
73 | RRIRWRPPRLPRPRPRPGRCPRP | 0.897
74 | RRIRWRPPRLPRPRPRPGRMPRP | 0.000663
75 | RRIRWRPPRLPRPRPRPGSEPRP | 0.385

Row | Sequence | shrunken log2 fold change
76 | RRIRWRPPRLPRPRPRPGSRPRP | 0.244
77 | RRIRWRPPRLPRPRPRPGTVPRP | -0.148
78 | RRIRWRPPRLPRPRPRPGWSPRP | 0.221
79 | RRIRWRPPRLPRPRPRPGYWPRP | -0.00394
80 | RRIRWRPPRLPRPRPRPHDHPRP | -0.152
81 | RRIRWRPPRLPRPRPRPHDIPRP | 0.00165
82 | RRIRWRPPRLPRPRPRPHDNPRP | -0.114
83 | RRIRWRPPRLPRPRPRPHEDPRP | 0.185
84 | RRIRWRPPRLPRPRPRPHESPRP | -0.262
85 | RRIRWRPPRLPRPRPRPHINPRP | -0.491
86 | RRIRWRPPRLPRPRPRPHIRPRP | 0.00375
87 | RRIRWRPPRLPRPRPRPHISPRP | 0.00485
88 | RRIRWRPPRLPRPRPRPHLQPRP | 0.103
89 | RRIRWRPPRLPRPRPRPHLTPRP | -0.19
90 | RRIRWRPPRLPRPRPRPHMPPRP | -0.768
91 | RRIRWRPPRLPRPRPRPHMYPRP | -0.443
92 | RRIRWRPPRLPRPRPRPHPCPRP | 0.12
93 | RRIRWRPPRLPRPRPRPHQAPRP | 0.257
94 | RRIRWRPPRLPRPRPRPHRFPRP | 0.077
95 | RRIRWRPPRLPRPRPRPHRKPRP | 0.113
96 | RRIRWRPPRLPRPRPRPHRYPRP | -0.15
97 | RRIRWRPPRLPRPRPRPHSNPRP | -0.09
98 | RRIRWRPPRLPRPRPRPHTQPRP | -0.56
99 | RRIRWRPPRLPRPRPRPHVHPRP | -0.126
100 | RRIRWRPPRLPRPRPRPHWDPRP | -0.0409

Row | Sequence | shrunken log2 fold change
101 | RRIRWRPPRLPRPRPRPHWFPRP | 0.0392
102 | RRIRWRPPRLPRPRPRPIAHPRP | -0.074
103 | RRIRWRPPRLPRPRPRPIAIPRP | -0.347
104 | RRIRWRPPRLPRPRPRPIASPRP | 0.104
105 | RRIRWRPPRLPRPRPRPICAPRP | 0.291
106 | RRIRWRPPRLPRPRPRPICSPRP | -0.199
107 | RRIRWRPPRLPRPRPRPIDAPRP | 0.0128
108 | RRIRWRPPRLPRPRPRPIDIPRP | -0.535
109 | RRIRWRPPRLPRPRPRPIEGPRP | -0.000175
110 | RRIRWRPPRLPRPRPRPIFLPRP | -0.509
111 | RRIRWRPPRLPRPRPRPIGKPRP | -0.0958
112 | RRIRWRPPRLPRPRPRPIGRPRP | -0.0158
113 | RRIRWRPPRLPRPRPRPIHEPRP | 0.041
114 | RRIRWRPPRLPRPRPRPIHNPRP | -0.458
115 | RRIRWRPPRLPRPRPRPIISPRP | -0.14
116 | RRIRWRPPRLPRPRPRPIKQPRP | -0.00809
117 | RRIRWRPPRLPRPRPRPIKYPRP | -0.744
118 | RRIRWRPPRLPRPRPRPILKPRP | -0.281
119 | RRIRWRPPRLPRPRPRPIMFPRP | -0.189
120 | RRIRWRPPRLPRPRPRPINSPRP | -0.498
121 | RRIRWRPPRLPRPRPRPIPGPRP | 0.0313
122 | RRIRWRPPRLPRPRPRPIPVPRP | -0.11
123 | RRIRWRPPRLPRPRPRPIRQPRP | -0.0309
124 | RRIRWRPPRLPRPRPRPITNPRP | -0.0654
125 | RRIRWRPPRLPRPRPRPIVGPRP | -0.0113

Row | Sequence | shrunken log2 fold change
126 | RRIRWRPPRLPRPRPRPIVIPRP | -0.353
127 | RRIRWRPPRLPRPRPRPIYEPRP | -0.355
128 | RRIRWRPPRLPRPRPRPKAHPRP | 0.197
129 | RRIRWRPPRLPRPRPRPKCCPRP | 0.0888
130 | RRIRWRPPRLPRPRPRPKCLPRP | -0.197
131 | RRIRWRPPRLPRPRPRPKDSPRP | 0.118
132 | RRIRWRPPRLPRPRPRPKFGPRP | 0.206
133 | RRIRWRPPRLPRPRPRPKGIPRP | -0.0761
134 | RRIRWRPPRLPRPRPRPKHCPRP | 0.0806
135 | RRIRWRPPRLPRPRPRPKHKPRP | 0.0536
136 | RRIRWRPPRLPRPRPRPKIEPRP | -0.0252
137 | RRIRWRPPRLPRPRPRPKKIPRP | 0.0449
138 | RRIRWRPPRLPRPRPRPKKQPRP | 0.176
139 | RRIRWRPPRLPRPRPRPKLWPRP | 1.06
140 | RRIRWRPPRLPRPRPRPKMEPRP | 0.577
141 | RRIRWRPPRLPRPRPRPKNFPRP | -0.188
142 | RRIRWRPPRLPRPRPRPKNPPRP | 0.152
143 | RRIRWRPPRLPRPRPRPKPHPRP | 0.351
144 | RRIRWRPPRLPRPRPRPKQHPRP | 0.299
145 | RRIRWRPPRLPRPRPRPKTEPRP | 0.111
146 | RRIRWRPPRLPRPRPRPKTPPRP | 0.894
147 | RRIRWRPPRLPRPRPRPKTRPRP | 0.654
148 | RRIRWRPPRLPRPRPRPKVGPRP | 0.0351
149 | RRIRWRPPRLPRPRPRPKVHPRP | -0.136
150 | RRIRWRPPRLPRPRPRPKVIPRP | -0.0585
